# Reference: PMC7913460, “Targeting hydroxycinnamoyl CoA: shikimate hydroxycinnamoyl transferase for lignin modification in Brachypodium distachyon” (Biotechnology for Biofuels, 2021)
# Columns and labels:
# [1] = substrate: O=C(/C=C/c1ccc(O)c(O)c1)O[C@@H]1CC(C(=O)O)=C[C@@H](O)[C@H]1O; test: HPLC product assay, reverse HCT reaction; format: biochemical, Arabidopsis thaliana; settings: 500 µM CoA, 100 mM sodium phosphate pH 7.5, 500 µM DTT, kcat apparent, substrate tested 20 to 400 µM
# From the text: HPLC product assay, reverse HCT reaction on AtHCT1
# [2] = substrate: CC(C)(COP(=O)(O)OP(=O)(O)OC[C@H]1O[C@@H](n2cnc3c(N)ncnc32)[C@H](O)[C@@H]1OP(=O)(O)O)[C@@H](O)C(=O)NCCC(=O)NCCSC(=O)/C=C/c1ccc(O)cc1; test: HPLC product assay, forward HCT reaction; format: biochemical, Arabidopsis thaliana; settings: 500 µM shikimic acid, 100 mM sodium phosphate pH 7.5, 500 µM DTT, kcat apparent
# From the text: HPLC product assay, forward HCT reaction on AtHCT1
protein,measurement,setting,value
AtHCT1 (Arabidopsis thaliana) (protein) MKINIRDSTMVRPATETPITNLWNSNVDLVIPRFHTPSVYFYRPTGASNFFDPQVMKEALSKALVPFYPMAGRLKRDDDGRIEIDCNGAGVLFVVADTPSVIDDFGDFAPTLNLRQLIPEVDHSAGIHSFPLLVLQVTFFKCGGASLGVGMQHHAADGFSGLHFINTWSDMARGLDLTIPPFIDRTLLRARDPPQPAFHHVEYQPAPSMKIPLDPSKSGPENTTVSIFKLTRDQLVALKAKSKEDGNTVSYSSYEMLAGHVWRSVGKARGLPNDQETKLYIATDGRSRLRPQLPPGYFGNVIFTATPLAVAGDLLSKPTWYAAGQIHDFLVRMDDNYLRSALDYLEMQPDLSALVRGAHTYKCPNLGITSWVRLPIYDADFGWGRPIFMGPGGIPYEGLSFVLPSPTNDGSLSVAIALQSEHMKLFEKFLFEI,Km,[1],225.0 µM
same,kcat,[1],17 s⁻¹
same,kcat/Km,[1],76000 M⁻¹ s⁻¹
same,Km,[2],18.5 µM
same,kcat,[2],17.5 s⁻¹
same,kcat/Km,[2],950000 M⁻¹ s⁻¹
